Patent publication US20210147485A1, “PEPTIDE LIGANDS FOR BINDING TO INTEGRIN” (BicycleTx Limited, priority 2018, published 2021)
Starred links: 1 amine or outer side, 2 acyl side, 3 side chain; linkers in the order of their positions; H or OH if unused. Positions of bridges follow the written chain, without caps; N, C: chain ends. Non-standard residues stand in square brackets, D forms with d. No end group written: not given here. TBMB = c1c(C[*:1])cc(C[*:3])cc1C[*:2]; Dap(Me) = CNC[C@H](N)C(=O)O

Experiments:
[1] = target: integrin αvβ3 (Homo sapiens, UniProt P05106+P06756); assay: Integrin αvβ3 competition binding assay (competition fluorescence polarisation, FITC-LC-GRGDSP ligand); settings: relative to thioether linked Reference Example 1
Description: The peptide ligands of the examples and the reference examples were tested in the above mentioned assay.
The following reference peptide ligands having a TBMB or TATA scaffold with three thioether linkages to cysteine residues of the specified peptide sequences were prepared and evaluated for affinity to integrin αvβ3 as described in detail in our earlier application GB1800598.3 filed 15 Jan. 2018.

[2] = target: integrin αvβ3; assay: competition fluorescence polarisation, 5 nM FITC-LC-GRGDSP tracer; n1
[3] = target: integrin αvβ3; assay: competition fluorescence polarisation, 5 nM FITC-LC-GRGDSP tracer; n2

| Ki [2] [µM] | Ki [3] [µM] | Molecule | binding affinity to integrin αvβ3 (in words) [1] |
| --- | --- | --- | --- |
| – | – | [Ac]A[Dap(Me)]ILRPN[Dap(Me)]DLDGR[Dap(Me)]A [BCY00009181] | larger drop in the measured affinity |
| > 18.6 | > 18.6 | Ac-A[Dap(Me)]ILRPN[Dap(Me)]DLDGR[Dap(Me)]A (linker 2-8-14 via TBMB) [BCY00009181] | – |
